How the values were obtained:
[1] = molecular target: human monoclonal anti-HIV-1 antibody 2F5 (isotype not stated in the assay); test: cell-based or functional assay
[2] = molecular target: human anti-HIV-1 (gp120 recognizing) antibody 2G12; test: cell-based or functional assay
[3] = molecular target: human monoclonal anti-HIV-1 antibody 2F5 (isotype not stated in the assay); test: competition ELISA: 50 ng/mL 3H6 preincubated with 31 ng/mL 2F5, then 2F5 binding to coated …
[4] = molecular target: human monoclonal anti-HIV-1 antibody 2F5 (isotype not stated in the assay); test: competition ELISA: 500 ng/mL 3H6 preincubated with 31 ng/mL 2F5, then 2F5 binding to coated …

B1: murine monoclonal anti-idiotypic antibody (Ab2) 3H6 (antibody, V domains shown)
VH: GVQLQQSGPELVKTGASVKISCKASGYSFTDYFMHWVKQSHGKSLDWIGYINCYTGATNYSQKFKGKATFTVDTSSNTAYMQFNSLTSEDSAVYYCARTSIGYGSSPPFPYWGQGTLVTVSA
VL: ETTVTQSPASLSMSIGEKVTIRCITSTDIDDDMNWYQQKPGEPPRLLISDGNTLRPGVPSRFSSSGYGTDFVFTIENMLSEDVADYYCLQSDNLPYTFGGGTNLEIK
depletion of 2F5 (10 µg/mL) neutralization of HIV-1 NL4-3 on AA-2 cells, p24 ELISA [1]: 3.9 µg/mL
reduction of 2F5 (10 µg/mL) neutralization at 3.9 µg/mL 3H6 [1]: 95%
reduction of the neutralizing capacity of 2F5 (10 µg/mL) at 1.9 µg/mL 3H6 [1]: 5%
reduction of 2G12 (10 µg/mL) neutralization of HIV-1 NL4-3 [2]: > 250 µg/mL
reduction of the OD [3]: 37%
reduction of OD [4]: 83%
